According to PMC10653388:

Biological target: endogenous S. cerevisiae TREX complex (S. cerevisiae) (UniProt P17629)
Assay: negative-stain EM

## endogenous S. cerevisiae TREX complex, P17629;P53552;P33441;O13539;P53851;Q07478;Q12159;P25555;P38922
  stoichiometry N: 2
